This series is described as follows: yeast display, Sf9 membrane polyspecificity reagent, FACS + sequencing; frameworks hold sequencing errors. In short, it runs like this: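 Nanobodies from a synthetic yeast display library (Saccharomyces cerevisiae BJ5465), induced 36–48 hours with galactose, were stained 1 hour at 4 °C with 10% biotinylated, detergent-solubilized Sf9 membrane reagent, enriched on streptavidin microbeads, then FACS-sorted. Anti-HA (expression) and streptavidin (reagent binding) fluorescence set low and high (top ~1%) gates. Polyreactivity labels come from the gate of origin. Genes were colony-PCR amplified, MiSeq 2 × 250 sequenced and filtered by CDR length.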
For “QVQLVESGGGLVQAGGSLRLSCAASGRTFIYYAMGWYRQAPGKEREFVAIISWNGTSTNYADSVKGRFTISRDNAKNTVYLQMNSLKPEDTAVYYCAASFWTDYYRYDYWGQGTQVTVSS”, the “polyreactivity (PSR sort gate)” value is “low polyreactivity”.

Consider “QVQLVESGGGLVQAGGSLRLSGAASGRTFYQYAMGWYRQAPGKARELVAAISWSDGSTSYADSVKGRFTISRDNAKNTVYLQMNSLKPEDTAGYYCAKDWTGTKAIEYDYWGQGTQVTVSS”, for which the “polyreactivity (PSR sort gate)” value is recorded as “low polyreactivity”.

For the sequence “QVQLVESGGGLVQAGGSLRLSCAASGRILIGNALGWYRQAPGKERELVAAISKRGGSTYYADSVKGRFTMSRDNAKNTDYLHMNSLKPEDTAVYYCNIESLYREFDYWGQGTLVTVSS”, the “polyreactivity (PSR sort gate)” value was “low polyreactivity”.

As to “QVQLVESGGGLVQAGGSLRLSCAASGLIFYDNAMGWYRQAPGKERELVAAISWGGGTTYYADSVKGRFTISRDNAKNTVYLQMISLKPDDTAVYYCAAEEALFYDFYYVLLDYWGQGTQVTVSS”, the “polyreactivity (PSR sort gate)” value was “high polyreactivity”.

For the sequence “QVQLVESGGGLVQAGGSLRLSCAASGRTINRYAMGWYRQAPGKERELVAAISTSGGTTYYADSVKGRFTISRDNAKNTVYLQMNSLKPEDSAVYYCAAVARRGSYLGQRLDYWGQGTQVTVSS”, the “polyreactivity (PSR sort gate)” value is on record as “high polyreactivity”.

In the case of “QVQLVESGGGLVQAGGSLRLSCAASGRIFWTNAMGWYRQEPGKERELVAAISYNGASTFYADSVKGRFTISLDNAKNTVNLQMNSLKPEDTAVYSCNAYSSRYRYNYWGQGTQVTVSS”, the “polyreactivity (PSR sort gate)” value is reported as “high polyreactivity”.

Turning to “QVQLVESGGGLVQAGGSLRLSCAASGSIFVGNAMGWYRQAPGKERELVAAISRGGGSTYYADSVKGRFTISRDNAKNTVYLQMNSLKPEDTAVYYCAAVKYYYGSAYDYWGQGTQVTVSS”, the “polyreactivity (PSR sort gate)” value was “high polyreactivity”.

In the case of “QVQLVESGGGLVQAGGSLRLSCAASGRIITWYAMGCYRQAPGKERELVAAISWSGGSTYYADSVTGRFTISRDNAKNTVYLQMNSLKPEDTAVYYCNKVTVTGLYDYWGQGTQVTVSS”, the “polyreactivity (PSR sort gate)” value is reported as “high polyreactivity”.

Turning to “QVQLVESGGGLVQAGGSLRLSCAASGSTLLVYAMGWYRQAPGKERELVAAITYSGTTTYYADSVKGRFTISRDNAKNTVYLQMNSLKPEDTAVYYCAKYPGYFQGNYWGQGTQVTVSS”, the “polyreactivity (PSR sort gate)” value was “low polyreactivity”.

As for “QVQLVESGGGLVQAGGSLRLSCAASGSNFAYNAMGWYRQAPGKERELVAGITTSGSRTYYADSVKGRFTISRDNAKNTVYLQMNSLKPEDTAVYYCAADPYFYPIYDYWGQGTQVTVSS”, the “polyreactivity (PSR sort gate)” value is recorded as “low polyreactivity”.

For “QVQLVESGGGLVQAGGSLRLSCAASGRIFGTYTMGWYRQAPGKERELVASIRFGGSTYYADSVKGRFTISRDNAKNSVYLQMNSLKPEDTAVYYCNRVYGYNRRYGYWGQGTQVTVSS”, the “polyreactivity (PSR sort gate)” value is listed as “high polyreactivity”.

Turning to “QVQLVESGGGLVQAGVSLRLSCAASGTFFIYAMGWYRQAPGKERELVAAITSGDITYYADSVKGRFTISRDNAKNTVYFEMNRLKPEDTAVYYCAAESYAWWDKQFLYRYDYWGQGTQVTVSS”, the “polyreactivity (PSR sort gate)” value is given as “low polyreactivity”.

With “QVQLVESGGGLVQAGGSLRLSCAASGRIFVTYAMGWYRQAPGKERELVAAITSRGGRTYDADSVKGRFTISRDNAKNTVYLQMNSLKPEDTAVYYCAAYPGPGARYYYWGQGTQVTVSS”, the “polyreactivity (PSR sort gate)” value is reported as “high polyreactivity”.

Take “QVQLVESGGALVQAGGSLRLSCAASGRTFVSYVMGWYRQAPGKEREMVAAISGNGGRTYYADSVKGRFTISRDYAKKTVYLQMNSLKPEDTAVFYCAAELFVSYFDVLMYYWGQGTQVTVSS”: the “polyreactivity (PSR sort gate)” value is “high polyreactivity”.

As to “QVQLVESGGGLVQAGGSLRLSCAASGFIFDGYAMGWYRQAPGKERELVADISSVGSTYYADSVKGRFTISRDNAKNTVYLQMNSLKPEDTAVYYCAAVRFYTYNYWGQGTQVSVSS”, the “polyreactivity (PSR sort gate)” value is given as “low polyreactivity”.

On to “QVQLVESGGGLVQAGGSLRLSCAASGIIFGEYPMGWYRQAPGKERELVAAISWSGGSTYYADSVKGRFTISRDNAKNTVYLQMNSLKPEDTAVYYCNPLPDIVIGGIIGYDYWGQGTQVTVSS”, for which the “polyreactivity (PSR sort gate)” value is given as “high polyreactivity”.

The values are drawn from the nanobody polyreactivity screen of Harvey et al. (2022).
